Results: patent US20210063414A1, “METHODS FOR PREVENTING AND/OR TREATING BONE LOSS CONDITIONS BY MODULATING IRISIN” (Dana-Farber Cancer Institute, Inc., priority 2018, published 2021)

Target: T1, MLO-Y4 cell surface proteins (Mus musculus, UniProt E9PW83)
T1 construct: endogenous in cells; host or cells: MLO-Y4
T1 sequence (E9PW83 1-1143): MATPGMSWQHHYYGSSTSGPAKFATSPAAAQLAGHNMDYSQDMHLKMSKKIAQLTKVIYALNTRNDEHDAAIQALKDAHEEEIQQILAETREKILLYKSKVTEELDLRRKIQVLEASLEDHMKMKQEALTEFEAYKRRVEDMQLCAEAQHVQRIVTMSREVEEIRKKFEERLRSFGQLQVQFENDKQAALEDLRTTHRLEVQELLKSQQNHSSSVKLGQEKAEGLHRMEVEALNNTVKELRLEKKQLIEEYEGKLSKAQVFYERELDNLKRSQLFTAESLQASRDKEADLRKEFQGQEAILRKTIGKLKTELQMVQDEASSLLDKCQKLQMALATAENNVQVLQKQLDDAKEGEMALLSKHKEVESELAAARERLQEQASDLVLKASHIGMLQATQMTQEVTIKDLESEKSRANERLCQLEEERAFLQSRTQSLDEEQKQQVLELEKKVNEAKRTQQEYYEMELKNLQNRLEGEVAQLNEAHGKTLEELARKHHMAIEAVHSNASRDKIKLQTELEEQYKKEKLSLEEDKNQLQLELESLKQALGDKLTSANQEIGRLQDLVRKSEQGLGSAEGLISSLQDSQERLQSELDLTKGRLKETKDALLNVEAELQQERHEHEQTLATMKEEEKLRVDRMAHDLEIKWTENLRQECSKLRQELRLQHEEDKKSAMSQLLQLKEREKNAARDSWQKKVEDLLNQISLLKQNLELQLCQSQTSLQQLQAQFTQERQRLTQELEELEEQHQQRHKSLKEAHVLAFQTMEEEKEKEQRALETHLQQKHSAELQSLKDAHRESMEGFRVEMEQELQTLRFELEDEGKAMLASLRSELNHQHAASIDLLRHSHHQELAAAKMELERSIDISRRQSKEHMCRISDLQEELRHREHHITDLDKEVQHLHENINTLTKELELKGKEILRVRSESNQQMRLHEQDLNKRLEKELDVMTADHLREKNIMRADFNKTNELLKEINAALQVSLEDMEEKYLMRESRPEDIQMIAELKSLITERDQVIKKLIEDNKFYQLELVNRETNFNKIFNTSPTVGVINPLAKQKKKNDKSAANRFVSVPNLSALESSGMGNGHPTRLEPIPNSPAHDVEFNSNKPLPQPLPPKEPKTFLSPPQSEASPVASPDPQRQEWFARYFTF
Test: Crosslinking/co-immunoprecipitation/mass spectrometry (TMT quantitative proteomics) to identify irisin receptors
Assay type: binding
Conditions: co-precipitated protein Fam184a (E9PW83_MOUSE)
In short: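 Relative protein abundance came from 6-plex TMT MS3 quantitation on an Orbitrap Fusion Lumos, after in-gel trypsin digestion of Coomassie-stained SDS-PAGE lanes. Input was a Ni-NTA pulldown (250 mM imidazole elution) of lysates from murine MLO-Y4 cells. These cells were treated on ice with His-tagged irisin or adipsin (10 nM, 20 min) in serum-free medium, then crosslinked with 1.5 mM DTSSP for 30 min.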

adipsin
TMT signal-to-noise ratio: 877.972
